Reference: publication PMC5525146

Biological target: Actin from rabbit muscle (rabbit) (UniProt P68135)
Assay: co-sedimentation

- percent of protein co-sedimented with F-actin at saturation: 20 to 22%
Substance: Palld-Ig3 K38/51A double mutant (domain or fragment)
